According to the nanobody polyreactivity screen of Harvey et al. (2022):

Assay: yeast display, Sf9 membrane polyspecificity reagent, FACS + sequencing; frameworks hold sequencing errors
Outline: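 Nanobodies came from a synthetic yeast display library in Saccharomyces cerevisiae BJ5465, induced with galactose for 36–48 hours and stained for 1 hour at 4 °C with 10% biotinylated, detergent-solubilized Sf9 membrane reagent. Cells were enriched on streptavidin microbeads and then FACS-sorted, with low and high (top ~1%) gates set on anti-HA fluorescence for expression and streptavidin fluorescence for reagent binding. Each polyreactivity label reflects the gate a clone came from. Genes were amplified by colony PCR, sequenced by MiSeq 2 × 250 and filtered by CDR length.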
With “QVQLVESGGGLVQAGGSLSISCAASGITLGHNAMGWYRQAPGKDRELVAAISWSGDRTFYADSVKGRFTISRDNAKNTVYLQMNSLKPEDTAVYYCNAEIGWHNEGRLSTYDYWGQGTQVTVSS” the “polyreactivity (PSR sort gate)” value was “low polyreactivity”. For “QVQLVESGGGLVQAGGSLSLICAASGRTFGPNTMGWYRQAPGKERELVAAITGSGGSTYYADSVKGRFTISRDNAKNTVYLQMNSLKPEDTAVYYCAKSVRYPASDYWGQGTQVTVSS”, the “polyreactivity (PSR sort gate)” value was “low polyreactivity”. With “QVQLVESGGGLVQAGGSLSLSCAASGFIFGAYAMGWYRQAPRKERELVADITQNSGSTYYADSVKGRFTISRDNAKYTVYLQMNSVKPEVTAVYFCNADWETADDYWGQGTQVTVSS” the “polyreactivity (PSR sort gate)” value was “low polyreactivity”. With “QVQLVESGGGLVQAGGSLSLSCAASGFIFGGYAMGWYRQAPGKERELVAAITWSGGNTYYADSVKGRFTISRDNAKNTVYLQMNSLKPEATAVYYCAADYWTKYVYWGQGTQVTVSS” the “polyreactivity (PSR sort gate)” value was “low polyreactivity”. For “QVQLVESGGGLVQAGGSLSLSCAASGFIFLGNAMGWYRQAPGKEREVVAAISSGGSTYADSVKGRFTISRDHAKNTVYLQMNSLKPEDTAVYYCAVDRAFRAQNYHEYDYWGQGSQVTVSS”, the “polyreactivity (PSR sort gate)” value was “low polyreactivity”. In the case of “QVQLVESGGGLVQAGGSLSLSCAASGFIFYRYAMGWYRQAPGKERELVAGISSRGGSTYYADSVKGRFTISRDNAKNTVYLQMNSLKPEDTAVYYCAKRPLTSNASQGDYWGQGTQVTVSS”, the “polyreactivity (PSR sort gate)” value is reported as “high polyreactivity”. For “QVQLVESGGGLVQAGGSLSLSCAASGFTFDYYAMGWYRQAPGKERELVAAISTSGGSTYYADSVKGRFTISRDNAMNTVYLQMNSLKPEDTAVYYCNVVFYEYSSVSYDYWGQGTQVTVSS”, the “polyreactivity (PSR sort gate)” value was “high polyreactivity”. With “QVQLVESGGGLVQAGGSLSLSCAASGGIFARNVMGWYRQAPGKERELVADISGSGGSTYYADSVKGRFTISRDNAKNTVYLQMNSLKPEDTAVYYCAARTPGVSVYKDGYWGQGTQVTVSS” the “polyreactivity (PSR sort gate)” value was “low polyreactivity”. With “QVQLVESGGGLVQAGGSLSLSCAASGIFKYYMGWYRQAPGKERELVAGITKRGGSTYYADSVKGRFTISRDNAKNTVYLQKNSLKPEDTAVYYCNAVGPKRYDYWGQGTQVTVSS” the “polyreactivity (PSR sort gate)” value was “high polyreactivity”. For “QVQLVESGGGLVQAGGSLSLSCAASGIIFGSYAMGWYRQAPGKESELVAAITSRGSSTRYADSVKGRFTISRDNAKNTVYLQMNSLKPEDTAVYYCATKVVVAHLPGYYYWGQGTQVTVSS”, the “polyreactivity (PSR sort gate)” value was “high polyreactivity”. In the case of “QVQLVESGGGLVQAGGSLSLSCAASGIIFYDYAMGWYRQAPGKERELVAVISRSGGSTYYADSVKGRFTISRDNAKNTVYLQMNSLNPEDTAVYYCARAYSLRVVTGDYWGQGTQVTVSS”, the “polyreactivity (PSR sort gate)” value is reported as “high polyreactivity”. For “QVQLVESGGGLVQAGGSLSLSCAASGITFVFYTMGWYRQAPGKERELVAAISRSGASTYYADSVKGRFTISRDNAKNTVYLQMNSLKPQDTAVDYCAADRGYRFRMDYWGQGTQVTVSS”, the “polyreactivity (PSR sort gate)” value was “high polyreactivity”. For “QVQLVESGGGLVQAGGSLSLSCAASGLILSDNAMGWYRQAPGKEREFVASITSSGGSTHYADSVKGRFTISRDNAKNTVYFQMNSLKPEDTAVYYCAKDYYEGDSYPYPGYEYWGQGTQVTVSS”, the “polyreactivity (PSR sort gate)” value was “low polyreactivity”. With “QVQLVESGGGLVQAGGSLSLSCAASGLTFRSYTMGWYRQAPGKERELVAAISSGGSTYYADSVKGRFTISRDNAKNTVYLQMNSLKPEDTAVYYCAAPRGHGKYYSWGQGTQVTVSS” the “polyreactivity (PSR sort gate)” value was “high polyreactivity”. With “QVQLVESGGGLVQAGGSLSLSCAASGNTLYNYPMGSYRPAPGKERELVAAISLSGGSTYYADSVKGRFTISRDNAKNTVYLQMNSLKRVDTAVYYCDADIFYYSSSYGYWGQGTQVTVSS” the “polyreactivity (PSR sort gate)” value was “low polyreactivity”. With “QVQLVESGGGLVQAGGSLSLSCAASGPTFGEYVMGWYRQAPGKERELVASISRRGGSTYYADSVKGRFTISRDNAKNTVYLQMNSLKPEDTAVYYCAKYRTQWSKNLYPYGFDYWGQGTQVTVSS” the “polyreactivity (PSR sort gate)” value was “low polyreactivity”. For “QVQLVESGGGLVQAGGSLSLSCAASGRIFAYYAMGWYRQAPGKERELVAGISQRGSRTYYADSVKGRFTISRDNGKNTVYLQMNSLKPEDTAVYYCAARDRRSVTMDYWGQGTQVTVSS”, the “polyreactivity (PSR sort gate)” value was “high polyreactivity”. With “QVQLVESGGGLVQAGGSLSLSCAASGRIFGYYAMGGYRQAPGKERELVAAITTGGNTYYAESVKGRFTISRDNAKNTVNLQMNSLKPEDTAVYYCNKRSYAYYSYAVFTWVDYWGQGTQVTVSS” the “polyreactivity (PSR sort gate)” value was “low polyreactivity”. For “QVQLVESGGGLVQAGGSLSLSCAASGRIFNRNAMGWYRQAPGKERELVASISSGGRTNYADSVKGRFTISRDNAKNTFYLQMNSLKPEDTAVYYCAAKSPRILLDYWGQGTQVTVSS”, the “polyreactivity (PSR sort gate)” value was “low polyreactivity”. With “QVQLVESGGGLVQAGGSLSLSCAASGRIFRRYAMGWYRQAPWKERELVAAITWSGGSTYADSVKGRFTISRDNAKNTVYLQMNSLKPEDTAVYYCAARYVTTKGSFVVGYGYWGQGTQVTVSS” the “polyreactivity (PSR sort gate)” value was “high polyreactivity”. With “QVQLVESGGGLVQAGGSLSLSCAASGRIFSLNVMGWYSQARGKERELVATIRGRGTSTYYADSVKGRFTISRDTAKNTVYLQMNSLKPEDTAVFYCAARGHGAYGYWGQGTQVTVSS” the “polyreactivity (PSR sort gate)” value was “low polyreactivity”. With “QVQLVESGGGLVQAGGSLSLSCAASGRIFSYNDMGWYRQAPGKERELVAAITSNDGSTYYADSVKGRFTISRDNAKNTVYLQMNSLKPVDSAVSYCTADVLFLSSYGYDYWGQGTQVTVSS” the “polyreactivity (PSR sort gate)” value was “low polyreactivity”. In the case of “QVQLVESGGGLVQAGGSLSLSCAASGRIFYGYVMVWYRQAPGKERELVAAITWSGSRTYYADSVKGRFTISRDNAKNTVFLQMNSLKPADTAVYYCAARIPSDGYYYWGQGTQVTVSS”, the “polyreactivity (PSR sort gate)” value is reported as “high polyreactivity”. For “QVQLVESGGGLVQAGGSLSLSCAASGRIINWYAMGWYRQATGKERELVARISSGDITSYADSVKGRFTISRDNAKNTVYLQMYSLKPEDTAVSYCAARQWFLYDYWGQGTQVTVSS”, the “polyreactivity (PSR sort gate)” value was “low polyreactivity”. With “QVQLVESGGGLVQAGGSLSLSCAASGRTFASNAIGWYRQAPGKERELVAAISSAGGTNYADSVKGRFTISRDNAKNTVYLQMISLKPEDTAVYYCAAASPYYSYHRYIYYYWGQGTQVTVSS” the “polyreactivity (PSR sort gate)” value was “high polyreactivity”. For “QVQLVESGGGLVQAGGSLSLSCAASGRTFIRNAMGWYRQAPRKEREVVAAINSCGITNYADSVNGRFTISRDNAKNTVDLQMNSLKPEDTAVYYCANTFQYYWFSLYDYWGQGTQVTVSS”, the “polyreactivity (PSR sort gate)” value was “low polyreactivity”. In the case of “QVQLVESGGGLVQAGGSLSLSCAASGRTFNNNAMGCYIPAPGKERELVAAITSGASTNYADSVKGRFTISRDNAKNTVYLQMNSLKPEDTAVYYCAKATYPHEYDYWGQGTQVTVSS”, the “polyreactivity (PSR sort gate)” value is reported as “low polyreactivity”. With “QVQLVESGGGLVQAGGSLSLSCAASGRTFRVYAMGSYRQSPRKERELVAAITNGGSTNYADSVKGRFTISRDNAKNTVYLQMNSLKPEDTAVYYCARVHRSYVAAQGVYVGNYYWGQGTQVTVSS” the “polyreactivity (PSR sort gate)” value was “high polyreactivity”. For “QVQLVESGGGLVQAGGSLSLSCAASGRTFRYYAMGWYRQAPGKERELVAAMRTRGASTYYADSVKGRFTISRDNAKNSVYLQMNSLKPEVSAVYYCAASRSGHGIIDYDSWGK”, the “polyreactivity (PSR sort gate)” value was “low polyreactivity”. With “QVQLVESGGGLVQAGGSLSLSCAASGRTFSGNAMGWYRQAPGKERELVAAINWRGGRTYYADSVKGRFTISRDNAKNTVYLQMNSLKPEDTAVYYCAAVYVFHRYIYSLYDYWGQGTQVTVSS” the “polyreactivity (PSR sort gate)” value was “high polyreactivity”. In the case of “QVQLVESGGGLVQAGGSLSLSCAASGSIFAAYTMGWYRQAPGQDRELVAAITSGGTYADSVKGRFTISRDNAKYSVYLQKNSLQPEVTAVYYCYAGNNVVVDYDYWGQGTQVTVSS”, the “polyreactivity (PSR sort gate)” value is reported as “low polyreactivity”. With “QVQLVESGGGLVQAGGSLSLSCAASGSIFAGNAMGWYRQAPGKERELVAAIRWSTGSTYYADSVKGRFTISRDNAKNTVYLQMNSQKPEDTAVYYCAATDTTFYGIVRYEFWGQGTQVTVSS” the “polyreactivity (PSR sort gate)” value was “low polyreactivity”. With “QVQLVESGGGLVQAGGSLSLSCAASGSIFASYAMGWYRQAPGKERELVAAITSDGNTYYADSVKGRFTISRDNAKNTVYLQMNSLKPEDTAVYYCAADRYSTYPYAKGTEFYYWGQGTQVTVSS” the “polyreactivity (PSR sort gate)” value was “low polyreactivity”. With “QVQLVESGGGLVQAGGSLSLSCAASGSIFFNNAMGWYRQAPGKERELVAAITWRDGSTNYADSVKGRFTISRDIAKNTVYLQMNSLKPEDTAVYYCNKVKEFGNVWFLPKYNYWGQGTQVTVSS” the “polyreactivity (PSR sort gate)” value was “low polyreactivity”. In the case of “QVQLVESGGGLVQAGGSLSLSCAASGSIFGENAKGWYRQAPGKERELVAAITWGGTSTYYADSVKGRFTISRDNAKNTVYLQMNSLKPEDTAVYYCNTPRYVRRQGVKRYDYWGQGTQVTVSS”, the “polyreactivity (PSR sort gate)” value is reported as “low polyreactivity”. In the case of “QVQLVESGGGLVQAGGSLSLSCAASGSIFGFNAMGWYRQAPGKERELVAAINNGGSTNYADSVKGRFTISRDNAKNTVYLQMNSLNPEDTSVYYCAAVGGWRWSNQDYRYPYYYWGQGTQVTVSS”, the “polyreactivity (PSR sort gate)” value is reported as “high polyreactivity”. With “QVQLVESGGGLVQAGGSLSLSCAASGSIFGGYTMGRKRQAPGKERELVAAISSVGSTYYADSVKGRFTISRDNAKNTVYLQMNSLKTEDTAVYYCATSTYAYRRNSNYYSLPRFGYWGQGTQVSVSS” the “polyreactivity (PSR sort gate)” value was “high polyreactivity”. For “QVQLVESGGGLVQAGGSLSLSCAASGSIFPHYAMGWYRQAPGKERELVAAISRGGSTNYADSVKGRFTISRDNAKNTVYLQMISLKPEDTAVYYCNARVYTKDYKRYDYWGQGTQVTVSS”, the “polyreactivity (PSR sort gate)” value was “high polyreactivity”. In the case of “QVQLVESGGGLVQAGGSLSLSCAASGSIFYGYAMGWYRQAPGKERELVAAITSGGRTYYADSVKGRFTISRDNAKNTVYLQMNSLKPEDTAVYYCNAVYRKTSYGYWGQGTQVTVSS”, the “polyreactivity (PSR sort gate)” value is reported as “high polyreactivity”. With “QVQLVESGGGLVQAGGSLSLSCAASGSILDRNTMGWYRQAPGKERELVAAITGSGSRTYYADSVKGRFTISRDNAKNTVYLQMNSLKPEDTAVYYCAAYTHSWTGDNYWGQGTQVTVSS” the “polyreactivity (PSR sort gate)” value was “high polyreactivity”. In the case of “QVQLVESGGGLVQAGGSLSLSCAASGSTFGYYARGWYRQAPGKERELVATITIGGYTHYADSVKGRFTISRDNAKNTVYLQMNSLKPEDTAFYYCAKRYYTNRHSRAFGYWGQGTQVTVSS”, the “polyreactivity (PSR sort gate)” value is reported as “high polyreactivity”.
